Patent publication US20220380463A1 (Adimab, published 2022)

Assays:
[1] = biological target: T1, human CD3 on CD3+ Jurkat cells (human, UniProt P07766 23-207); test: flow cytometry, 100 nM IgG on CD3+ Jurkat cells, pH 6.0
T1 construct: whole, on cells; Native CD3 complex on cells; the other CD3 chains are not specified for this assay; also called Human CD3+ Jurkat
In short: (§1)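 Jurkat cells incubated 20 min on ice with 100 nM yeast-produced IgG in PBS + 0.1% BSA at pH 6.0 or pH 7.4, with all washes and staining at the same pH. Bound antibody detected with anti-human IgG-RPE, dead cells excluded by propidium iodide; MFI measured by flow cytometry.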

[2] = biological target: T1, human CD3 on CD3+ Jurkat cells; test: flow cytometry on CD3+ Jurkat cells, ratio of MFI at pH 6.0 to pH 7.4
In short: as §1

[3] = biological target: T1, human CD3 on CD3+ Jurkat cells; test: flow cytometry, 100 nM IgG on CD3+ Jurkat cells, pH 7.4
In short: as §1

T1 sequence (P07766 23-207): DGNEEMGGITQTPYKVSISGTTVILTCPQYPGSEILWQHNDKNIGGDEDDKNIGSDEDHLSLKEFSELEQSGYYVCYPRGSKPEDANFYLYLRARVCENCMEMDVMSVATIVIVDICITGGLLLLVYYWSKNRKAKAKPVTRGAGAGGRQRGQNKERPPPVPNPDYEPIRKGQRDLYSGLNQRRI

| Binder | MFI pH 6.0 [1] | MFI pH 6.0/MFI pH 7.4 [2] | MFI pH 7.4 [3] |
| --- | --- | --- | --- |
| SAD10319_P02_H06 (ADI-48633) (antibody, V domains shown, IgG; also called Ab16) VH: QVQLVQSGAEVKKPGASVKVSCKASGYTFTAYVMHWVRQAPGQRLEWMGSIDAGTGNTKYSQKFQGRVTITRDTSASTAYMELSSLRSEDTAVYYCARDAYGHYFYDHWGQGTLVTVSS VL: DIVMTQSPDSLAVSLGERATINCKSSQSLLNARTGKNYLAWYQQKPGQPPKLLIYWASTRESGVPDRFSGSGSGTDFTLTISSLQAEDVAVYYCKQSYSRRTFGGGTKVEIK | 2790 MFI | 1.9 | 1450 MFI |
| SAD10319_P03_E08 (ADI-48637) (antibody, V domains shown, IgG; also called Ab21) VH: QVQLVQSGAEVKKPGASVKVSCKASGYTFNDYAMHWVRQAPGQRLEWMGYINGTGATVYSQKFQGRVTITRDTSASTAYMELSSLRSEDTAVYYCARDAYHHYFYDVWSQGTLVTVSS VL: DIVMTQSPDSLAVSLGERATINCKSSQSLLNARTGKNYLAWYQQKPGQPPKLLIYWASTRESGVPDRFSGSGSGTDFTLTISSLQAEDVAVYYCKQSYSRRTFGGGTKVEIK | 244 MFI | 3.3 | 73 MFI |
| SAD10319_P03_C07 (ADI-48634) (antibody, V domains shown, IgG; also called Ab17) VH: QVQLVQSGAEVKKPGASVKVSCKASGYTFESYDMHWVRQAPGQRLEWMGWIDAGTGATTYSQKFQGRVTITRDTSASTAYMELSSLRSEDTAVYYCARDAYHHYFYDVWGQGTLVTVSS VL: DIVMTQSPDSLAVSLGERATINCKSSQSLLNARTGKNYLAWYQQKPGQPPKLLIYWASTRESGVPDRFSGSGSGTDFTLTISSLQAEDVAVYYCKQSYSRRTFGGGTKVEIK | 651 MFI | 14.7 | 44 MFI |
| SAD10319_P03_G08 (ADI-48638) (antibody, V domains shown, IgG; also called Ab22) VH: QVQLVQSGAEVKKPGASVKVSCKASGYTFSSYDMHWVRQAPGQRLEWMGWIDAGTGFTKYSQKFQGRVTITRDTSASTAYMELSSLRSEDTAVYYCARDAYGHYFYDHWGQGTLVTVSS VL: DIVMTQSPDSLAVSLGERATINCKSSQSLLNARTGKNYLAWYQQKPGQPPKLLIYWASTRESGVPDRFSGSGSGTDFTLTISSLQAEDVAVYYCKQSYSRRTFGGGTKVEIK | 2000 MFI | 23.8 | 84 MFI |
| SAD10319_P03_A08 (ADI-48636) (antibody, V domains shown, IgG; also called Ab230) VH: QVQLVQSGAEVKKPGASVKVSCKASGYTFTDYDMHWVRQAPGQRLEWMGWIDAGTGLTKYSQKFQGRVTITRDTSASTAYMELSSLRSEDTAVYYCARDHYGHYFYDVWGQGTLVTVSS VL: DIVMTQSPDSLAVSLGERATINCKSSQSLLNARTGKNYLAWYQQKPGQPPKLLIYWASTRESGVPDRFSGSGSGTDFTLTISSLQAEDVAVYYCKQSYSRRTFGGGTKVEIK | 897 MFI | 25.9 | 35 MFI |
| SAD10319_P03_B09 (ADI-48639) (antibody, V domains shown, IgG; also called Ab24) VH: QVQLVQSGAEVKKPGASVKVSCKASGYTFTEYDMHWVRQAPGQRLEWMGWIDAGTGATVYSQKFQGRVTITRDTSASTAYMELSSLRSEDTAVYYCARDAYGRYFYDHWGQGTLVTVSS VL: DIVMTQSPDSLAVSLGERATINCKSSQSLLNARTGKNYLAWYQQKPGQPPKLLIYWASTRESGVPDRFSGSGSGTDFTLTISSLQAEDVAVYYCKQSYSRRTFGGGTKVEIK | 897 MFI | 16.5 | 55 MFI |
| SAD10319_P03_E07 (ADI-48635) (antibody, V domains shown, IgG; also called Ab17) VH: QVQLVQSGAEVKKPGASVKVSCKASGYTFESYDMHWVRQAPGQRLEWMGWIDAGTGATTYSQKFQGRVTITRDTSASTAYMELSSLRSEDTAVYYCARDAYHHYFYDVWGQGTLVTVSS VL: DIVMTQSPDSLAVSLGERATINCKSSQSLLNARTGKNYLAWYQQKPGQPPKLLIYWASTRESGVPDRFSGSGSGTDFTLTISSLQAEDVAVYYCKQSYSRRTFGGGTKVEIK | 623 MFI | 11.6 | 54 MFI |
